# Assay results reported in article doi:10.1101/2020.01.09.899195 (bioRxiv, 2020).
# T1: MinD(R3E) (Escherichia coli, UniProt P0AEZ3 1-270, R3E)
# T1 sequence (looked up): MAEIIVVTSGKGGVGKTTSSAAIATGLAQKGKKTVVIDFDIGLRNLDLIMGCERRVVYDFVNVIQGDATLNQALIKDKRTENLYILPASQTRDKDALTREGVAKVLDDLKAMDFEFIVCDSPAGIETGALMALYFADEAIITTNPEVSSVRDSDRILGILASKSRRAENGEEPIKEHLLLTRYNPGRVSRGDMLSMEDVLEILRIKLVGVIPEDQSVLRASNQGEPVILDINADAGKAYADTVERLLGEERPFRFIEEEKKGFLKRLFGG
# Key:
# ClpX = ClpX (Escherichia coli, UniProt P0A6H1 1-424); test: negative-stain transmission electron microscopy
# MinD(R3E) = target: T1, MinD(R3E); test: 90° light scatter
binding result (ClpX),binding result (MinD(R3E)),Binder
binds,,ClpP (enzyme) not shown
,binds,"MinC (natural protein, Escherichia coli, UniProt P18196 1-231, looked up) MSNTPIELKGSSFTLSVVHLHEAEPKVIHQALEDKIAQAPAFLKHAPVVLNVSALEDPVNWSAMHKAVSATGLRVIGVSGCKDAQLKAEIEKMGLPILTEGKEKAPRPAPTPQAPAQNTTPVTKTRLIDTPVRSGQRIYAPQCDLIVTSHVSAGAELIADGNIHVYGMMRGRALAGASGDRETQIFCTNLMAELVSIAGEYWLSDQIPAEFYGKAARLQLVENALTVQPLN"
